Experimental data taken from FireProtDB (doi:10.1021/bi00250a032).
Several values for one entry are separate records, joined by “and”; a condition that tells them apart may be missing. Equal values may be shown once.

Details: Streptomyces sp. EC3, Thermal, DSC, reversible: yes
[1] = pH 7.5, Sodium phosphate 60 mM, transition: 3
[2] = pH 8.9, glycine-NaOH 60 mM, transition: 4

Endo-1,4-beta-xylanase wild type, Q56013, sequence (Q56013 entry or part of it): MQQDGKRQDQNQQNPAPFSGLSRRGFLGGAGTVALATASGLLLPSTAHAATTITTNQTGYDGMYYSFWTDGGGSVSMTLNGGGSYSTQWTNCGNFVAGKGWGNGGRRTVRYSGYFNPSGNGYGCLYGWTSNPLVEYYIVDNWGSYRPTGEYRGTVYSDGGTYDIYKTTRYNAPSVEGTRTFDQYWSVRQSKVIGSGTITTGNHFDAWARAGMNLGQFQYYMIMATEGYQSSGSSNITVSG

## Endo-1,4-beta-xylanase wild type, Q56013
pH 3.6, Sodium phosphate 60 mM, transition: 4
  unfolding enthalpy (calorimetric): 66 kcal/mol and 84 kcal/mol and 108 kcal/mol
pH 4.1, Sodium phosphate 60 mM, transition: 3
  unfolding enthalpy (calorimetric): 57 kcal/mol and 100 kcal/mol
pH 6.3, Sodium phosphate 60 mM, transition: 4
  unfolding enthalpy (calorimetric): 100 kcal/mol and 150 kcal/mol and 223 kcal/mol
[1]
  Tm: 60.5 °C and 64 °C
  unfolding enthalpy (calorimetric): 99 kcal/mol and 200 kcal/mol
pH 7.5, Sodium phosphate 60 mM, transition: 4
  unfolding enthalpy (calorimetric): 93 kcal/mol and 137 kcal/mol and 187 kcal/mol
pH 8.9, glycine-NaOH 60 mM, transition: 3
  unfolding enthalpy (calorimetric): 72 kcal/mol and 136 kcal/mol
[2]
  Tm: 51.5 °C and 54.6 °C
  unfolding enthalpy (calorimetric): 118 kcal/mol and 157 kcal/mol
